From patent US20180362652A1 (Biogen, published 2018)
Where a chain is given by its changes, count along the chain named. Names and notes keep the numbering of the source. Where two headings read alike, the source gives them in different places. Blank lines part the entries; values can stand above or below the binder they belong to.

Columns and labels:
[1] = biological target: T1, human BDCA2 (full-length, cell surface) (human, UniProt Q8WTT0 1-213); experiment: direct binding FACS on surface BDCA2, conditioned medium
T1 construct: also called huBDCA2; surface human BDCA2
T1 sequence: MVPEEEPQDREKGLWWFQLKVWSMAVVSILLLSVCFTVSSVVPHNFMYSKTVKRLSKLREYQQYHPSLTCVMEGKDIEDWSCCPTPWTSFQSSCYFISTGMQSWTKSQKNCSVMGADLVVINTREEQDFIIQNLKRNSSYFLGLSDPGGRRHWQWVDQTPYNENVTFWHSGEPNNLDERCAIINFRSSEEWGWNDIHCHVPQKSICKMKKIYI

[2] = biological target: T2, monomeric huBDCA2 ectodomain (human, UniProt Q8WTT0 45-213); experiment: Octet, mAb on anti-human Fc tips, monomeric huBDCA2 in solution
T2 construct: Prepared by proteolytic cleavage of the purified muIgG2a Fc-huBDCA2 fusion protein (pEAG2423); also called human BDCA2 ectodomain; human BDCA2 ECD
T2 sequence: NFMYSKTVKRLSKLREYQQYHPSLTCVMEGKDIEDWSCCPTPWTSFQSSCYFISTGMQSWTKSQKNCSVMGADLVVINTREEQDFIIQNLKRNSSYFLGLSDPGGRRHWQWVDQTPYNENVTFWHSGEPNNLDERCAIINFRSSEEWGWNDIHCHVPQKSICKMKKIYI
Method: Site-directed mutagenesis was performed using Agilent's QuikChange II mutagenesis kit following the manufacturer's recommended protocol. […] Mutated plasmids were identified by screening for the introduced restriction site changes. The full-length light chain cDNA sequences in the resultant plasmids were confirmed by DNA sequencing. […] Conditioned medium was harvested at 2 days post-transfection. […] Antibodies from conditioned medium from transiently transfected cells were bound to anti-human Fc tips, then monomeric huBDCA2 was flowed over the Octet tips, to examine binding and dissociation.

[3] = biological target: T2, monomeric huBDCA2 ectodomain; experiment: Octet, mAb from conditioned medium on anti-human Fc tips, monomeric huBDCA2 in solution
Method: Backmutation to the unpaired cysteine, i.e., S95C, was constructed by site-directed mutagenesis producing plasmid pYL749. Variants S95T, S95A, and S95V were constructed by site-directed mutagenesis producing plasmids pYL750, pYL751, and pYL752, respectively. The full-length light chain cDNA sequences in the resultant plasmids were confirmed by DNA sequencing. […] Conditioned medium was harvested at 2 days post-transfection. […] Conditioned medium containing the C95 variant mAbs was assayed by Octet for binding to human BDCA2 ectodomain. Antibodies from conditioned medium from transiently transfected cells were bound to anti-human Fc tips, then monomeric huBDCA2 was flowed over the Octet tips, to examine binding and dissociation.

[4] = biological target: T3, cynomolgus monkey BDCA2 (full-length, cell surface, E73 SNP form) (cynomolgus monkey, UniProt Q8WTT0 1-213 (human entry)); experiment: direct binding FACS, conditioned medium on CHO cells co-expressing BDCA2 and FcεRIγ
T3 construct: also called cyno BDCA2; surface cynomolgus monkey BDCA2
T3 chain: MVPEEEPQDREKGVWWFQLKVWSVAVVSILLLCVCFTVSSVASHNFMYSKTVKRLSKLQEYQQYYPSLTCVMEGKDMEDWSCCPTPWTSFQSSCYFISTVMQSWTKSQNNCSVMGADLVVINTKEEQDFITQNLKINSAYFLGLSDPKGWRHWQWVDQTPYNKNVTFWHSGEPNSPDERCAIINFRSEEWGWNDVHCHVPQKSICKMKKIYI
Method: (§1) Conditioned medium was assayed by direct binding FACS on stably transfected DG44 CHO cells co-expressing full-length BDCA2 and FcεRIγ cDNAs (human or cynomolgus monkey), (relevant expression vectors are human BDCA2/FcεRIγ: pEAG2456, cyno BDCA2/FcεRIγ: pEAG2668).

[5] = biological target: T3, cynomolgus monkey BDCA2 (full-length, …); experiment: direct binding FACS, conditioned medium on CHO cells co-expressing cynomolgus BDCA2 and FcεRIγ
Method: as §1

[6] = biological target: T1, human BDCA2 (full-length, cell surface); experiment: direct binding FACS, conditioned medium on CHO cells co-expressing BDCA2 and FcεRIγ
Method: as §1

[7] = biological target: T2, monomeric huBDCA2 ectodomain; experiment: Octet, mAb from conditioned medium on anti-human Fc tips, monomeric huBDCA2 in solution; remark: listed apart in the source
Method: The monomeric huBDCA2 ectodomain was prepared by proteolytic cleavage from the purified muIgG2a Fc-huBDCA2 fusion protein (relevant plasmid: pEAG2423). Antibodies from conditioned medium from transiently transfected cells were bound to anti-human Fc tips, and then monomeric huBDCA2 was flowed over the Octet tips, to examine binding and dissociation.

B5: hu24F4 H0/L1 (antibody, V domains shown)
VH: EVQLVESGGGLVKPGGSLRLSCAASGFTFSTYTMSWVRQAPGKGLEWVSAISGSGGSTYYADSVKGRFTISRDNAKNSLYLQMNSLRAEDTAVYYCARDIYYNYGAWFAYWGQGTLVTVSS
VL: DIQLTQSPSSLSASVGDRVTITCKASQSVDYDGDSYMNWYQQKPGKAPKLLIYAASTLESGVPSRFSGSGSGTDFTLTISSLQPEDFATYYCQQSNEDPRTFGQGTKVEIK
notes: Humanized variant, human IgG1/kappa, conditioned medium of 293E cells; also called H0 series of hu24F4
- binding result [5]: no binding (tested: about 6000 ng/ml)

B8: hu24F4 H2/L1 (antibody, V domains shown)
VH: EVQLVESGGGLVKPGGSLRLSCAASGFTFSTYTMSWVRQAPGKGLEWVSTISPGDSSTIYYADSVKGRFTISRDNAKNSLYLQMNSLRAEDTAVYYCARDIYYNYGAWFAYWGQGTLVTVSS
VL: B5 VL
notes: Humanized variant, human IgG1/kappa, conditioned medium of 293E cells; also called H2 series of hu24F4
- binding result [5]: no binding (tested: about 7000 ng/ml)

B9: hu24F4 H5/L2 (antibody, V domains shown)
VH: DVQLVQSGGGLVKPGGSLRLSCAASGFTFSTYTMSWVRQAPGKGLEWVATISPGDSFGYYYPDSVQGRFTISRDNAKNSLYLQMNRLRAEDTAVYYCTRDIYYNYGAWFAYWGRGTLVTVSS
VL: B5 VL with A13V, V19A, T22S, L82V
notes: Humanized variant, human IgG1/kappa, conditioned medium of 293E cells; also called H5 series of hu24F4
- binding result [4]: binds
- binding result [6]: binds
- binding result [3]: binds

B10: hu24F4 H6/L0 (antibody, V domains shown)
VH: B9 VH with Q6E, P53G, D55N, S56N, F57Y, Y60S, Q66K, R86S, R114Q
VL: B5 VL with D1A
notes: Humanized variant, human IgG1/kappa, conditioned medium of 293E cells; also called H6 series of hu24F4
- Kd [7]: 5 nM
- koff [7]: 0.00137 s⁻¹
- kon [7]: 273000 M⁻¹ s⁻¹

B12: hu24F4 H6/L2 (antibody, V domains shown)
VH: B9 VH with Q6E, P53G, D55N, S56N, F57Y, Y60S, Q66K, R86S, R114Q
VL: B5 VL with A13V, V19A, T22S, L82V
notes: as for B10
- binding result [4]: binds
- binding result [6]: binds

B14: hu24F4 H4/L2 (antibody, V domains shown)
VH: B9 VH with Q6E, R86S, R114Q
VL: B5 VL with A13V, V19A, T22S, L82V
notes: Humanized variant, human IgG1/kappa, conditioned medium of 293E cells; also called H4 series of hu24F4
- binding result [4]: binds
- binding result [6]: binds
- binding result [3]: binds

B15: hu24F4 H3/L2 (antibody, V domains shown)
VH: B8 VH with S57F, T58G, I59Y, A62P, K66Q
VL: B5 VL with A13V, V19A, T22S, L82V
notes: Humanized variant, human IgG1/kappa, conditioned medium of 293E cells; also called H3 series of hu24F4
- binding result [4]: binds
- binding result [6]: binds

B16: hu24F4 H1/L1 (antibody, V domains shown)
VH: B5 VH with A50T, G53P, S54G, G55D, G56S, S57F, T58G, A61P
VL: B5 VL
notes: Humanized variant, human IgG1/kappa, conditioned medium of 293E cells; also called H1 series of hu24F4
- binding result [5]: no binding (tested: about 5000 ng/ml)

B18: hu24F4 H4/L1 S95T (antibody, human IgG1, V domains shown)
VH: B9 VH with Q6E, R86S, R114Q
VL: B5 VL with S95T
notes: Human IgG1/kappa; conditioned medium of 293E cells; also called H4-L1-C95T (YL750/YL746); hu24F4 H4/L1 C95T
- Kd [3]: 0.392 nM
- koff [3]: 0.00037 s⁻¹
- kon [3]: 944000 M⁻¹ s⁻¹

B19: hu24F4 H4/L1 S95V (antibody, human IgG1, V domains shown)
VH: B9 VH with Q6E, R86S, R114Q
VL: B5 VL with S95V
notes: Human IgG1/kappa; conditioned medium of 293E cells; also called H4-L1-C95V (YL752/YL746)
- Kd [3]: 0.323 nM
- koff [3]: 0.000301 s⁻¹
- kon [3]: 933000 M⁻¹ s⁻¹

B20: hu24F4 H2/L2 (antibody, V domains shown)
VH: B8 VH
VL: B5 VL with A13V, V19A, T22S, L82V
notes: as for B8
- binding result [4]: no binding
- binding result [6]: no binding

The remaining lines, values ahead:

- binding result [1]: binds
- binding result [2]: binds
B1: ch24F4 C95S variant (antibody, human IgG1, kappa, V domains shown)
VH: DVKLVESGGGLVKPGGSLKLSCAASGFTFSTYTMSWVRQTPEKRLEWVATISPGDSFGYYYPDSVQGRFTISRDNAKNTLFLQMSSLKSEDTAMYYCTRDIYYNYGAWFAYWGQGTLVTVSA
VL: DIVLTQSPASLAVSLGQRATISCKASQSVDYDGDSYMNWYQQKPGQPPKLLIYAASTLESGVPARFSGSGSGTDFTLNIHPVEEEDAATYYCQQSNEDPRTFGGGTKLEIKR
notes: pYL672 with pEAG2678; conditioned medium of 293E cells

- binding result [1]: binds
- binding result [2]: binds
B2: ch24F4 C95T variant (antibody, human IgG1, kappa, V domains shown)
VH: B1 VH
VL: B1 VL with S95T
notes: pYL672 with pEAG2679; conditioned medium of 293E cells

- binding result [3]: binds
B3: hu24F4 H5/L1 C95A (antibody, V domains shown)
VH: B9 VH
VL: DIQLTQSPSSLSASVGDRVTITCKASQSVDYDGDSYMNWYQQKPGKAPKLLIYAASTLESGVPSRFSGSGSGTDFTLTISSLQPEDFATYYCQQANEDPRTFGQGTKVEIKR
notes: also called H5/L1 C95A variant

- binding result [4]: no binding
B4: hu24F4 H2/L0 (antibody, V domains shown)
VH: B8 VH
VL: B5 VL with D1A
notes: as for B8

- binding result [4]: no binding
- binding result [6]: no binding
B6: hu24F4 H1/L2 (antibody, V domains shown)
VH: B5 VH with A50T, G53P, S54G, G55D, G56S, S57F, T58G, A61P
VL: B5 VL with A13V, V19A, T22S, L82V
notes: as for B16

- Kd [3]: 0.289 nM
- koff [3]: 0.000279 s⁻¹
- kon [3]: 967000 M⁻¹ s⁻¹
B7: hu24F4 H4/L1 S95C (antibody, human IgG1, V domains shown)
VH: B9 VH with Q6E, R86S, R114Q
VL: B5 VL with S95C
notes: Human IgG1/kappa; conditioned medium of 293E cells; also called H4-L1-S95C (YL749/YL746)

- binding result [4]: no binding
B11: hu24F4 H1/L0 (antibody, V domains shown)
VH: B5 VH with A50T, G53P, S54G, G55D, G56S, S57F, T58G, A61P
VL: B5 VL with D1A
notes: as for B16

- binding result [4]: no binding
B13: hu24F4 H0/L0 (antibody, V domains shown)
VH: B5 VH
VL: B5 VL with D1A
notes: as for B5

- binding result [4]: no binding
- binding result [6]: no binding
B17: hu24F4 H0/L2 (antibody, V domains shown)
VH: B5 VH
VL: B5 VL with A13V, V19A, T22S, L82V
notes: as for B5
